Test results taken from publication PMC9352680, “A comprehensive thermodynamic model for RNA binding by the Saccharomyces cerevisiae Pumilio protein PUF4”.

T1: PUF4 RNA-binding domain (Saccharomyces cerevisiae, UniProt P25339 537-888)
T1 sequence: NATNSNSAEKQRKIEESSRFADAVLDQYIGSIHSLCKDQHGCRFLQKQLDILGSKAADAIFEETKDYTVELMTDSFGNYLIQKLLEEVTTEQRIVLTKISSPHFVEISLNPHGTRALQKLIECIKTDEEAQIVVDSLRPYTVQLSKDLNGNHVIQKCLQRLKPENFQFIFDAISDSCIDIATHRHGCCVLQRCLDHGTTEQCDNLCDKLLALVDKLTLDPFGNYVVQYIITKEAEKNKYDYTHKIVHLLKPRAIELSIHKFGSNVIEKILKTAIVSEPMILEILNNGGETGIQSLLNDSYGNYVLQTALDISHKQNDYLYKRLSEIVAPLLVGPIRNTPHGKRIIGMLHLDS

B1: Ic_S4_P4E.1_K4.1_C4.1_H4.1_A4.1_[T5G]_[A6T]_[T7A]_F4.1_T4.1 (ssRNA)
RNA: UUUGACAACUGAUCGUUCUUUCUUGUAGUAUAUUCUUUCUCGAUCAGUUGUCUUU
B2: Ic_S4_P4E.1_K4.1_C4.1_H4.1_A4.1_[T5G]_[A6T]_F4.1_[A9G]_T4.1 (ssRNA)
RNA: UUUGACAACUGAUCGUUCUUUCUUGUAGUUUGUUCUUUCUCGAUCAGUUGUCUUU
B3: Ic_S4_P4E.1_K4.1_C4.1_H4.1_A4.1_[T5C]_[A6C]_F4.1_[T8A]_[A9C]_T4.1 (ssRNA)
RNA: UUUGACAACUGAUCGUUCUUUCUUGUACCUACUUCUUUCUCGAUCAGUUGUCUUU
B4: Ic_S4_P4E.1_K4.1_C4.1_H4.1_A4.1_[T5C]_[A6G]_F4.1_[T8C]_[A9C]_T4.1 (ssRNA)
RNA: UUUGACAACUGAUCGUUCUUUCUUGUACGUCCUUCUUUCUCGAUCAGUUGUCUUU
B5: Ic_S4_P4E.1_K4.1_C4.1_H4.1_A4.1_[T5C]_[A6G]_F4.1_[T8C]_[A9G]_T4.1 (ssRNA)
RNA: UUUGACAACUGAUCGUUCUUUCUUGUACGUCGUUCUUUCUCGAUCAGUUGUCUUU
B6: Ic_S4_P4E.1_K4.1_C4.1_H4.1_A4.1_[T5C]_[A6G]_[T7C]_F4.1_[T8A]_[A9G]_T4.1 (ssRNA)
RNA: UUUGACAACUGAUCGUUCUUUCUUGUACGCAGUUCUUUCUCGAUCAGUUGUCUUU
B7: Ic_S4_P4E.1_K4.1_C4.1_H4.1_A4.1_[T5C]_[A6C]_[T7A]_F4.1_[T8A]_[A9T]_T4.1 (ssRNA)
RNA: UUUGACAACUGAUCGUUCUUUCUUGUACCAAUUUCUUUCUCGAUCAGUUGUCUUU
B8: Ic_S4_P4E.1_K4.1_C4.1_H4.1_A4.1_[T5C]_[A6C]_[T7C]_F4.1_[A9C]_T4.1 (ssRNA)
RNA: UUUGACAACUGAUCGUUCUUUCUUGUACCCUCUUCUUUCUCGAUCAGUUGUCUUU
B9: Ic_S4_P4E.1_K4.1_C4.1_H4.1_A4.1_[T5C]_[A6C]_[T7A]_F4.1_[T8C]_[A9T]_T4.1 (ssRNA)
RNA: UUUGACAACUGAUCGUUCUUUCUUGUACCACUUUCUUUCUCGAUCAGUUGUCUUU
B10: Ic_S4_P4E.1_K4.1_C4.1_H4.1_A4.1_[T5C]_[A6C]_[T7C]_F4.1_[T8A]_[A9C]_T4.1 (ssRNA)
RNA: UUUGACAACUGAUCGUUCUUUCUUGUACCCACUUCUUUCUCGAUCAGUUGUCUUU
B11: Ic_S4_P4E.1_K4.1_C4.1_H4.1_A4.1_[T5C]_[A6C]_[T7C]_F4.1_[T8G]_[A9C]_T4.1 (ssRNA)
RNA: UUUGACAACUGAUCGUUCUUUCUUGUACCCGCUUCUUUCUCGAUCAGUUGUCUUU
B12: Ic_S4_P4E.1_K4.1_C4.1_H4.1_A4.1_[T5C]_[A6C]_[T7A]_F4.1_T4.1 (ssRNA)
RNA: UUUGACAACUGAUCGUUCUUUCUUGUACCAUAUUCUUUCUCGAUCAGUUGUCUUU
B13: Ic_S4_P4E.1_K4.1_C4.1_H4.1_A4.1_[T5C]_[A6G]_[T7G]_F4.1_[A9T]_T4.1 (ssRNA)
RNA: UUUGACAACUGAUCGUUCUUUCUUGUACGGUUUUCUUUCUCGAUCAGUUGUCUUU
B14: Ic_S4_P4E.1_K4.1_C4.1_H4.1_A4.1_[T5C]_[A6C]_[T7G]_F4.1_[T8G]_[A9T]_T4.1 (ssRNA)
RNA: UUUGACAACUGAUCGUUCUUUCUUGUACCGGUUUCUUUCUCGAUCAGUUGUCUUU
B15: Ic_S4_P4E.1_K4.1_C4.1_H4.1_A4.1_[T5C]_[A6C]_[T7A]_F4.1_[A9C]_T4.1 (ssRNA)
RNA: UUUGACAACUGAUCGUUCUUUCUUGUACCAUCUUCUUUCUCGAUCAGUUGUCUUU
B16: Ic_S4_P4E.1_K4.1_C4.1_H4.1_A4.1_[T5C]_[A6C]_[T7G]_F4.1_[T8C]_[A9C]_T4.1 (ssRNA)
RNA: UUUGACAACUGAUCGUUCUUUCUUGUACCGCCUUCUUUCUCGAUCAGUUGUCUUU
B17: Ic_S4_P4E.1_K4.1_C4.1_H4.1_A4.1_[T5C]_[A6C]_[T7G]_F4.1_[T8C]_[A9G]_T4.1 (ssRNA)
RNA: UUUGACAACUGAUCGUUCUUUCUUGUACCGCGUUCUUUCUCGAUCAGUUGUCUUU
B18: Ic_S4_P4E.1_K4.1_C4.1_H4.1_A4.1_[T5C]_[A6C]_[T7G]_F4.1_[T8C]_[A9T]_T4.1 (ssRNA)
RNA: UUUGACAACUGAUCGUUCUUUCUUGUACCGCUUUCUUUCUCGAUCAGUUGUCUUU
B19: Ic_S4_P4E.1_K4.1_C4.1_H4.1_A4.1_[T5C]_[A6G]_[T7C]_F4.1_[T8G]_[A9G]_T4.1 (ssRNA)
RNA: UUUGACAACUGAUCGUUCUUUCUUGUACGCGGUUCUUUCUCGAUCAGUUGUCUUU

biological target: T1, PUF4 RNA-binding domain; assay: Mg; RNA-MaP; 20 mM Na-HEPES pH 7.4, 30 mM KOAc, 0.75 mM MgCl2, 0.1% Tween-20, 5% glycerol, 0.1 mg/mL BSA, 2 mM DTT; 25 C; 0.0125-409.6 nM protein; settings: tags: N-His6-TEV cleaved; C-SNAP kept, Cy3B-labelled; label: tethered on chip by stalled RNA polymerase

Question: With UCUCUUUGUACAUGAUCUCUU (ssRNA) [Ic_S1_P4E.1_K4.1_C4.1_H4.1_A4.1_[T5C]_F4.1_[T8G]_T4.1] as the binder, how does the Kd read?
Answer: 20.2 nM

Question: With UCUCUUUGUAAAUGAUCUCUU (ssRNA) [Ib_S1_P4E.1_K4.1_C4.1_H4.1_A4.1_[T5A]_F4.1_[T8G]_T4.1] as the binder, how does the Kd read?
Answer: 113 nM

Question: For UCUCUUUGCAUAUUAUCUCUU (ssRNA) [Ia_S1_P4E.1_K4.1_C4.1_H4.1_[T3C]_A4.1_F4.1_T4.1], which Kd is on record?
Answer: 76.5 nM

Question: Which Kd does the source give for UCUCUUUGUACAUCAUCUCUU (ssRNA) [Ic_S1_P4E.1_K4.1_C4.1_H4.1_A4.1_[T5C]_F4.1_[T8C]_T4.1] here?
Answer: 8.45 nM

Question: For UCUCUUUGUUUAUUUUCUCUU (ssRNA) [Ib_S1_P4E.1_K4.1_C4.1_H4.1_[A4T]_A4.1_F4.1_[A9T]_T4.1], which Kd is on record?
Answer: 353 nM

Question: B1 was tested. Which Kd did it give?
Answer: 2.95 nM

Question: Which Kd does the source give for B2 here?
Answer: 65 nM

Question: For B3, which Kd is on record?
Answer: 75.8 nM

Question: Which Kd does the source give for B4 here?
Answer: 35 nM

Question: B5 was tested. Which Kd did it give?
Answer: 395 nM

Question: Which Kd does the source give for B6 here?
Answer: 1470 nM

Question: B7 was tested. Which Kd did it give?
Answer: 45.5 nM

Question: For B8, which Kd is on record?
Answer: 31.2 nM

Question: Which Kd does the source give for B9 here?
Answer: 47.1 nM

Question: Which Kd does the source give for B10 here?
Answer: 1090 nM

Question: Which Kd does the source give for B11 here?
Answer: 1190 nM

Question: How did the Kd turn out when B12 was run?
Answer: 0.476 nM

Question: B13 was tested. Which Kd did it give?
Answer: 158 nM

Question: For B14, which Kd is on record?
Answer: 2190 nM

Question: B15 was tested. Which Kd did it give?
Answer: 15.2 nM

Question: Which Kd does the source give for B16 here?
Answer: 973 nM

Question: With B17 as the binder, how does the Kd read?
Answer: 827 nM

Question: For B18, which Kd is on record?
Answer: 150 nM

Question: How did the Kd turn out when B19 was run?
Answer: 1800 nM
